Test results reported in paper PMC9482650, “Quantitative fragmentomics allow affinity mapping of interactomes” (Nature Communications, 2022).

T1: HTRA4, P83105
T1 sequence (P83105 378-476, limits assumed, looked up): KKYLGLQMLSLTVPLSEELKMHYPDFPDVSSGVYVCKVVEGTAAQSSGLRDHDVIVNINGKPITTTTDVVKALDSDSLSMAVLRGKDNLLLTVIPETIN

T2: ARHGAP21, Q5T5U3
T2 sequence (Q5T5U3 45-169, limits assumed, looked up): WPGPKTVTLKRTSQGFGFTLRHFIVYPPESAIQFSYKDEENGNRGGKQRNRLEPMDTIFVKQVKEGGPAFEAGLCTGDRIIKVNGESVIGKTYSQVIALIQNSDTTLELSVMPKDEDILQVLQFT

T3: GRIP1_7, Q9Y3R0
T3 sequence (Q9Y3R0 999-1096, limits assumed, looked up): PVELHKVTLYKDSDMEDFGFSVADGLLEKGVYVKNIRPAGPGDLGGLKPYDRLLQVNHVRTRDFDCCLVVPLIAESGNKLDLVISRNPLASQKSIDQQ

T4: LNX2_2, Q8N448
T4 sequence (Q8N448 334-432, limits assumed, looked up): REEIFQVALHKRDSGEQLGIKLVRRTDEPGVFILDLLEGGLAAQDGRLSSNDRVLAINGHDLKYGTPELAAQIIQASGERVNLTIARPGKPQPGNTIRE

T5: LIN7A, O14910
T5 sequence (O14910 103-200, limits assumed, looked up): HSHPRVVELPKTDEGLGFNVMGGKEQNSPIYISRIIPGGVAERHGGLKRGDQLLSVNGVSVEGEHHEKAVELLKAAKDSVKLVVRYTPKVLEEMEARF

T6: TJP3_3, O95049
T6 sequence (O95049 375-456, limits assumed, looked up): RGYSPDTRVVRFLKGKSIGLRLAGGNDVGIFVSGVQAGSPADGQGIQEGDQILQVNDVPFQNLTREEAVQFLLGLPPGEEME

T7: DLG3_3, Q92796
T7 sequence (Q92796 374-475, limits assumed, looked up): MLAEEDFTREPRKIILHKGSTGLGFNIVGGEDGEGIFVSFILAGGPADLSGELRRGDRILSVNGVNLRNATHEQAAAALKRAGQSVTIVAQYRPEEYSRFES

T8: RAPGEF6, Q8TEU7
T8 sequence (Q8TEU7 525-625, limits assumed, looked up): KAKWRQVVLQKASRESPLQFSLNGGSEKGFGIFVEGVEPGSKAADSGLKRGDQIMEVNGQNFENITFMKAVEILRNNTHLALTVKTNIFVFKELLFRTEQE

T9: SNTB1, Q13884
T9 sequence (Q13884 107-205, limits assumed, looked up): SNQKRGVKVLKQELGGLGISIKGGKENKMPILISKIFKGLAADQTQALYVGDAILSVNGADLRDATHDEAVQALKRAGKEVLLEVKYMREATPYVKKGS

T10: APBA1_2, Q02410
T10 sequence (Q02410 742-832, limits assumed, looked up): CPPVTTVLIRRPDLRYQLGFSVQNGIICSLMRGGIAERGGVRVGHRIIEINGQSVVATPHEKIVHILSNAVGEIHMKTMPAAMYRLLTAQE

T11: MPP6, Q9NZW5
T11 sequence (Q9NZW5 125-219, limits assumed, looked up): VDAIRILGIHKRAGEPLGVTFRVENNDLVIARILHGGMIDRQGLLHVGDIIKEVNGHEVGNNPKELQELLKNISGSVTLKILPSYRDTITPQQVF

T12: APBA1_1, Q02410
T12 sequence (Q02410 651-752, limits assumed, looked up): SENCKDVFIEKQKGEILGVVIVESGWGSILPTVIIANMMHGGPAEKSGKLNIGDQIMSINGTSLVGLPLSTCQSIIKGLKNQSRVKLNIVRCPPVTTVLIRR


molecular target: T1, HTRA4, P83105; test: holdup assay; parameters: key: below the threshold = too weak to quantify, mostly under pKd 3.1 to 4; conditions: plain residues with an end cap or a label only (N-terminal biotin on a linker: ado-ado)

Row | Binder | pKd
1 | YPKQMPLSQV [FZD8, Q9H461] | 3.94
2 | LGHTPFVDEL [UQCRC2, P22695] | 3.98

molecular target: TJP1_3, Q07157; test: holdup assay; parameters: key: below the threshold = too weak to quantify, mostly under pKd 3.1 to 4; conditions: plain residues with an end cap or a label only (N-terminal biotin on a linker: ado-ado)
Sequence (Q07157 416-512): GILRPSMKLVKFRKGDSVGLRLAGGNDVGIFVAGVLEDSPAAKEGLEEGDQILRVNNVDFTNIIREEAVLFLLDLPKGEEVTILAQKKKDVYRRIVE

Row | Binder | pKd
3 | YPKQMPLSQV [FZD8, Q9H461] | below the threshold
4 | LGHTPFVDEL [UQCRC2, P22695] | below the threshold

molecular target: T2, ARHGAP21, Q5T5U3; test: holdup assay; parameters: key: below the threshold = too weak to quantify, mostly under pKd 3.1 to 4; conditions: plain residues with an end cap or a label only (N-terminal biotin on a linker: ado-ado)

Row | Binder | pKd
5 | YPKQMPLSQV [FZD8, Q9H461] | 3.94
6 | LGHTPFVDEL [UQCRC2, P22695] | 3.91

molecular target: NHERF2_2, Q15599; test: holdup assay; parameters: key: below the threshold = too weak to quantify, mostly under pKd 3.1 to 4; conditions: plain residues with an end cap or a label only (N-terminal biotin on a linker: ado-ado)
Sequence (Q15599 142-238): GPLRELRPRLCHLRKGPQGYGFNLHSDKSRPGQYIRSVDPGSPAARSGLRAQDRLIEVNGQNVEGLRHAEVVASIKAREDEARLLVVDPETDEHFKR

Row | Binder | pKd
7 | YPKQMPLSQV [FZD8, Q9H461] | below the threshold
8 | LGHTPFVDEL [UQCRC2, P22695] | 4.34

molecular target: T3, GRIP1_7, Q9Y3R0; test: holdup assay; parameters: key: below the threshold = too weak to quantify, mostly under pKd 3.1 to 4; conditions: plain residues with an end cap or a label only (N-terminal biotin on a linker: ado-ado)

Row | Binder | pKd
9 | YPKQMPLSQV [FZD8, Q9H461] | below the threshold
10 | LGHTPFVDEL [UQCRC2, P22695] | below the threshold

molecular target: NHERF4_1, Q86UT5-2; test: holdup assay; parameters: key: below the threshold = too weak to quantify, mostly under pKd 3.1 to 4; conditions: plain residues with an end cap or a label only (N-terminal biotin on a linker: ado-ado)
Sequence (Q86UT5 other isoform, or with tags, fused parts or gaps): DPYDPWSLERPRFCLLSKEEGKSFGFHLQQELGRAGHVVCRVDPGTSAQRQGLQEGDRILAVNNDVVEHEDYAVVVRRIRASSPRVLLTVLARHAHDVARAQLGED

Row | Binder | pKd
11 | YPKQMPLSQV [FZD8, Q9H461] | below the threshold
12 | LGHTPFVDEL [UQCRC2, P22695] | 4.2

molecular target: NHERF4_4, Q86UT5; test: holdup assay; parameters: key: below the threshold = too weak to quantify, mostly under pKd 3.1 to 4; conditions: plain residues with an end cap or a label only (N-terminal biotin on a linker: ado-ado)
Sequence (Q86UT5 464-550): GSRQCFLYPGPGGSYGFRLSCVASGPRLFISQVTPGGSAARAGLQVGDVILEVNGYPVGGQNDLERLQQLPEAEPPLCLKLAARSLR

Row | Binder | pKd
13 | YPKQMPLSQV [FZD8, Q9H461] | below the threshold
14 | LGHTPFVDEL [UQCRC2, P22695] | below the threshold

molecular target: T4, LNX2_2, Q8N448; test: holdup assay; parameters: key: below the threshold = too weak to quantify, mostly under pKd 3.1 to 4; conditions: plain residues with an end cap or a label only (N-terminal biotin on a linker: ado-ado)

Row | Binder | pKd
15 | YPKQMPLSQV [FZD8, Q9H461] | below the threshold
16 | LGHTPFVDEL [UQCRC2, P22695] | below the threshold

molecular target: PICK1, Q9NRD5; test: holdup assay; parameters: key: below the threshold = too weak to quantify, mostly under pKd 3.1 to 4; conditions: plain residues with an end cap or a label only (N-terminal biotin on a linker: ado-ado)
Sequence (Q9NRD5 17-115): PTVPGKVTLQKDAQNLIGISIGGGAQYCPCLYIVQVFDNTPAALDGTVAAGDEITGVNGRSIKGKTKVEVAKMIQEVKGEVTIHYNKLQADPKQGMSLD

Row | Binder | pKd
17 | YPKQMPLSQV [FZD8, Q9H461] | below the threshold
18 | LGHTPFVDEL [UQCRC2, P22695] | 4.09

molecular target: T5, LIN7A, O14910; test: holdup assay; parameters: key: below the threshold = too weak to quantify, mostly under pKd 3.1 to 4; conditions: plain residues with an end cap or a label only (N-terminal biotin on a linker: ado-ado)

Row | Binder | pKd
19 | YPKQMPLSQV [FZD8, Q9H461] | below the threshold
20 | LGHTPFVDEL [UQCRC2, P22695] | 3.53

molecular target: DLG4_1, P78352; test: holdup assay; parameters: key: below the threshold = too weak to quantify, mostly under pKd 3.1 to 4; conditions: plain residues with an end cap or a label only (N-terminal biotin on a linker: ado-ado)
Sequence (P78352 62-152): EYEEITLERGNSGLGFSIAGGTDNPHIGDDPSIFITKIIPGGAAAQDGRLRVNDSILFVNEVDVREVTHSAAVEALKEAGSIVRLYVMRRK

Row | Binder | pKd
21 | YPKQMPLSQV [FZD8, Q9H461] | 3.69
22 | LGHTPFVDEL [UQCRC2, P22695] | below the threshold

molecular target: Inadl_2, Q8NI35; test: holdup assay; parameters: key: below the threshold = too weak to quantify, mostly under pKd 3.1 to 4; conditions: plain residues with an end cap or a label only (N-terminal biotin on a linker: ado-ado)
Sequence (Q8NI35 238-335): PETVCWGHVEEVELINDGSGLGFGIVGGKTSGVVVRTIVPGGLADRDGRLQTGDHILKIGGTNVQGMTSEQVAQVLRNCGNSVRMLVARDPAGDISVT

Row | Binder | pKd
23 | YPKQMPLSQV [FZD8, Q9H461] | below the threshold
24 | LGHTPFVDEL [UQCRC2, P22695] | below the threshold

molecular target: NOS1, P29475; test: holdup assay; parameters: key: below the threshold = too weak to quantify, mostly under pKd 3.1 to 4; conditions: plain residues with an end cap or a label only (N-terminal biotin on a linker: ado-ado)
Sequence (P29475 9-101): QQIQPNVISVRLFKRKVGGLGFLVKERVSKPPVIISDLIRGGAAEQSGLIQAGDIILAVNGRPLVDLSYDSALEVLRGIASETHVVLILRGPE

Row | Binder | pKd
25 | YPKQMPLSQV [FZD8, Q9H461] | below the threshold
26 | LGHTPFVDEL [UQCRC2, P22695] | below the threshold

molecular target: MAGI1_1, Q96QZ7; test: holdup assay; parameters: key: below the threshold = too weak to quantify, mostly under pKd 3.1 to 4; conditions: plain residues with an end cap or a label only (N-terminal biotin on a linker: ado-ado)
Sequence (Q96QZ7 1-106): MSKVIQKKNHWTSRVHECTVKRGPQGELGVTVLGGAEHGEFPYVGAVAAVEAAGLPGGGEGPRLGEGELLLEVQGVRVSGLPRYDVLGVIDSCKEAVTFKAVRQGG

Row | Binder | pKd
27 | YPKQMPLSQV [FZD8, Q9H461] | below the threshold
28 | LGHTPFVDEL [UQCRC2, P22695] | below the threshold

molecular target: T6, TJP3_3, O95049; test: holdup assay; parameters: key: below the threshold = too weak to quantify, mostly under pKd 3.1 to 4; conditions: plain residues with an end cap or a label only (N-terminal biotin on a linker: ado-ado)

Row | Binder | pKd
29 | YPKQMPLSQV [FZD8, Q9H461] | below the threshold
30 | LGHTPFVDEL [UQCRC2, P22695] | below the threshold

molecular target: T7, DLG3_3, Q92796; test: holdup assay; parameters: key: below the threshold = too weak to quantify, mostly under pKd 3.1 to 4; conditions: plain residues with an end cap or a label only (N-terminal biotin on a linker: ado-ado)

Row | Binder | pKd
31 | YPKQMPLSQV [FZD8, Q9H461] | below the threshold
32 | LGHTPFVDEL [UQCRC2, P22695] | below the threshold

molecular target: T8, RAPGEF6, Q8TEU7; test: holdup assay; parameters: key: below the threshold = too weak to quantify, mostly under pKd 3.1 to 4; conditions: plain residues with an end cap or a label only (N-terminal biotin on a linker: ado-ado)

Row | Binder | pKd
33 | YPKQMPLSQV [FZD8, Q9H461] | below the threshold
34 | LGHTPFVDEL [UQCRC2, P22695] | below the threshold

molecular target: GRID2IP_1, A4D2P6; test: holdup assay; parameters: key: below the threshold = too weak to quantify, mostly under pKd 3.1 to 4; conditions: plain residues with an end cap or a label only (N-terminal biotin on a linker: ado-ado)
Sequence (A4D2P6 1-87): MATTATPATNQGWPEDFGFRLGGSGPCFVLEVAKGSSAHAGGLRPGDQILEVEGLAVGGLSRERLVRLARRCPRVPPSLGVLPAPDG

Row | Binder | pKd
35 | YPKQMPLSQV [FZD8, Q9H461] | below the threshold
36 | LGHTPFVDEL [UQCRC2, P22695] | below the threshold

molecular target: Inadl_9, Q8NI35; test: holdup assay; parameters: key: below the threshold = too weak to quantify, mostly under pKd 3.1 to 4; conditions: plain residues with an end cap or a label only (N-terminal biotin on a linker: ado-ado)
Sequence (Q8NI35 1530-1615): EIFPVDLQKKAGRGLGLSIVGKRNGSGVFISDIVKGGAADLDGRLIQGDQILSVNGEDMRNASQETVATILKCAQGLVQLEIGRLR

Row | Binder | pKd
37 | YPKQMPLSQV [FZD8, Q9H461] | below the threshold
38 | LGHTPFVDEL [UQCRC2, P22695] | below the threshold

molecular target: T9, SNTB1, Q13884; test: holdup assay; parameters: key: below the threshold = too weak to quantify, mostly under pKd 3.1 to 4; conditions: plain residues with an end cap or a label only (N-terminal biotin on a linker: ado-ado)

Row | Binder | pKd
39 | YPKQMPLSQV [FZD8, Q9H461] | below the threshold
40 | LGHTPFVDEL [UQCRC2, P22695] | below the threshold

molecular target: T10, APBA1_2, Q02410; test: holdup assay; parameters: key: below the threshold = too weak to quantify, mostly under pKd 3.1 to 4; conditions: plain residues with an end cap or a label only (N-terminal biotin on a linker: ado-ado)

Row | Binder | pKd
41 | YPKQMPLSQV [FZD8, Q9H461] | 3.81
42 | LGHTPFVDEL [UQCRC2, P22695] | 3.75

molecular target: GRASP, Q7Z6J2; test: holdup assay; parameters: key: below the threshold = too weak to quantify, mostly under pKd 3.1 to 4; conditions: plain residues with an end cap or a label only (N-terminal biotin on a linker: ado-ado)
Sequence (Q7Z6J2 96-193): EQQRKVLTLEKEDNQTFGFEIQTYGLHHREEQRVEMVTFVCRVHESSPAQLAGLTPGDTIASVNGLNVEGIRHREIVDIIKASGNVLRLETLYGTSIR

Row | Binder | pKd
43 | YPKQMPLSQV [FZD8, Q9H461] | below the threshold
44 | LGHTPFVDEL [UQCRC2, P22695] | 3.85

molecular target: TJP2_1, Q9UDY2; test: holdup assay; parameters: key: below the threshold = too weak to quantify, mostly under pKd 3.1 to 4; conditions: plain residues with an end cap or a label only (N-terminal biotin on a linker: ado-ado)
Sequence (Q9UDY2 24-128): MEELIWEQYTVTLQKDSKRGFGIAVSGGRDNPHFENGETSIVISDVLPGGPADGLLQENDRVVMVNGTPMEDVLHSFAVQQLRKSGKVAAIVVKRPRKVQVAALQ

Row | Binder | pKd
45 | YPKQMPLSQV [FZD8, Q9H461] | below the threshold
46 | LGHTPFVDEL [UQCRC2, P22695] | below the threshold

molecular target: T11, MPP6, Q9NZW5; test: holdup assay; parameters: key: below the threshold = too weak to quantify, mostly under pKd 3.1 to 4; conditions: plain residues with an end cap or a label only (N-terminal biotin on a linker: ado-ado)

Row | Binder | pKd
47 | YPKQMPLSQV [FZD8, Q9H461] | below the threshold
48 | LGHTPFVDEL [UQCRC2, P22695] | below the threshold

molecular target: T12, APBA1_1, Q02410; test: holdup assay; parameters: key: below the threshold = too weak to quantify, mostly under pKd 3.1 to 4; conditions: plain residues with an end cap or a label only (N-terminal biotin on a linker: ado-ado)

Row | Binder | pKd
49 | YPKQMPLSQV [FZD8, Q9H461] | below the threshold
50 | LGHTPFVDEL [UQCRC2, P22695] | below the threshold
